PMC9170159 (Proceedings of the National Academy of Sciences of the …, 2022)

B1: NCI-CoV-2F7 VHH-hFc fusion protein (Fc fusion)
VHH: QVKLEESGGGSVQSGGSLRLSCTVSRDTNTNINRCMGWFRQAPGKGLETVATINRDGTNTYYTDAVKGRFTISQDNVKNTVYLQMNNLTPEDTGTYICNAMGRGSGSRCDNWDPNYWGQGTQVTVSS
notes: also called 2F7 VHH-Fc; source: Expi293 cells, transfected, purified (protein A column)
B2: NCI-CoV-2F7 monomeric VHH (VHH-His) (VHH)
VHH: B1 VHH
B3: NCI-CoV-7A3 monomeric VHH (VHH-His) (VHH)
VHH: QVQLVESGGGSVQPGGSLRLSCVVSGYTSSSRYMGWFRQVPGKGLEWVSGIKRDGTNTYYADSVKGRFTISQDNAKNTVYLQMNSLKPEDTAMYYCAAGSWYNQWGYSMDYWGKGTQVTVSS
B4: NCI-CoV-8A2 monomeric VHH (VHH-His) (VHH)
VHH: AVQLVDSGGGSVQAGGSLRLSCAASGYTYSICTMGWYRQAPGEGLEWVSGINADGSNTHYTDSVKGRFTISRDNAKKTLYLQMNSLKPEDTAIYYCAAHGTYDKYAPCGGFAGTYTYWGQGTQVTVSS

How the values were obtained:
[1] = molecular target: SARS-CoV-2 (Wuhan-Hu-1) spike receptor-binding domain, His-tagged (SARS-CoV-2, UniProt P0DTC2 319-541); assay: BLI; details: both partners purified
[2] = molecular target: SARS-CoV-2 spike receptor-binding domain (RBD), Wuhan-Hu-1, His-tagged (SARS-CoV-2 (Wuhan-Hu-1), UniProt P0DTC2); assay: BLI; details: both partners purified

| Binder | Kd [1] [nM] | Kd [2] [nM] |
| --- | --- | --- |
| B1 | 0.77 | – |
| B2 | – | 0.75 |
| B3 | – | 0.96 |
| B4 | – | 0.8 |
